The values that follow are results of earlier work, collected in article PMC9837045.

One data set concerns the target Activin A (Homo sapiens) (UniProt P08476). Put plainly: SPR. Background: SPR reads the build-up and loss of mass on a sensor chip optically.
The target of data set [1] is BMP9 (Homo sapiens) (UniProt Q9UK05). Put plainly: SPR.
The target is the same in data set [2].
For data set [3] the target is unchanged. This is another data set of the same source.
For data set [4] the target is unchanged. The source holds these as a separate data set.

“And” between values parts separate entries of the source, which are not always exact repeats. Equal values may be shown once. Read-outs that look alike come from different tables or passages of the source.

UniProt P08476, sequence (P08476 311-426): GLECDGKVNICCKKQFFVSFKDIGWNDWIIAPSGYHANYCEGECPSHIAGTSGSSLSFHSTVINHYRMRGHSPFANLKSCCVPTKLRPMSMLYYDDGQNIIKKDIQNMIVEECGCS
UniProt Q9UK05, sequence (Q9UK05 320-429): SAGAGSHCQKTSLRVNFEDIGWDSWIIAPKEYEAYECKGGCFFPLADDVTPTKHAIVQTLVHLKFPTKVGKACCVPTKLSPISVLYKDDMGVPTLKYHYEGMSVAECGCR

As to (ACVR2B)2-Fc ECD (from UniProt Q13705), the Kd with Activin A (Homo sapiens) is 0.0125 nM.
For ACVR2A ECD (from UniProt P27037), in the data set with Activin A (Homo sapiens), the Kd is 5.7 nM.
In the case of ACVR2A-Fc ECD (from UniProt P27037), the Kd in the data set with Activin A (Homo sapiens) is 0.13 nM.
ACVR2B ECD (from UniProt Q13705): the Kd with Activin A (Homo sapiens) was 1.1 nM.
Regarding “ACVR2B-Fc (single ECD) ECD (from UniProt Q13705)”, in the data set with Activin A (Homo sapiens), the Kd was 0.108 nM.
For the substance ACVR2B-Fc ECD (from UniProt Q13705), the Kd is 0.033 nM and 0.116 nM in the data set with BMP9 (Homo sapiens) [1]; 0.0092 nM with Activin A (Homo sapiens).
As to ALK1-ECD ECD (from UniProt P37023), the Kd in the data set with BMP9 (Homo sapiens) [2] was 0.0716 nM.
In the case of ALK1-Fc ECD (from UniProt P37023), the Kd is 0.0481 nM and 0.0455 nM with BMP9 (Homo sapiens) [3]; 0.0313 nM with BMP9 (Homo sapiens) [1].
Consider ALK2-Fc ECD (from UniProt Q04771), for which the dissociation constant Kd with BMP9 (Homo sapiens) [4] was 83 nM.
Regarding BMPR2 ECD (from UniProt Q13873), in the data set with Activin A (Homo sapiens), the Kd is 59 nM.
Consider BMPR2-Fc ECD (from UniProt Q13873), for which, in the data set with Activin A (Homo sapiens), the Kd is 14 nM.

For orientation: Kd means the equilibrium constant for the complex coming apart.
